Patent US20240124575A1 (SIMCERE ZAIMING PHARMACEUTICAL, published 2024)
Where two headings read alike, the source gives them in different places.

B1: C33B904 hIgG1 (antibody, V domains shown)
VH: EVQLVESGGGLVQPGRSLRLSCAASGFTFDDYAMHWVRQAPGKGLEWVSGIGWSGGSIVYADSVKGRFTISRDNAKNSLYLQMNSLRAEDTALYYCAKDSPYGDFFDYWGQGTLVTVSS
VL: DIVMTQSPDSLAVSLGERATINCKSSQTVFYSSNNKNYLAWYQQKPGQPPKLLISWASTRKSGVPDRFSGSGSGTDFTLTVSSLQAEDVAVYYCQHYYSTPYTFGQGTKLEIKR
notes: intact human IgG1; variable regions from US20190382481A1; also called C33B3904; C331B904
B2: C33B904 (antibody, human IgG1, kappa, V domains shown)
VH: EVQLVESGGGLVQPGRSLRLSCAASGFTFDDYAMHWVRQAPGKGLEWVSGIGWSGGSIVYADSVKGRFTISRDNAKNSLYLQMNSLRAEDTALYYCAKDSPYGDFFDYWGQGTLVTVSS
VL: DIVMTQSPDSLAVSLGERATINCKSSQTVFYSSNNKNYLAWYQQKPGQPPKLLISWASTRKSGVPDRFSGSGSGTDFTLTVSSLQAEDVAVYYCQHYYSTPYTFGQGTKLEIKR
notes: control antibody, intact human IgG1 form; variable regions from US20190382481A1; also called C33B904 hIgG1; C331B904

Assays:
[1] = biological target: T1, human CD33 on U937 cells (endogenous) (human, UniProt P20138 18-364); assay: FACS, U937 cells
T1 construct: whole, on cells
T1 sequence (P20138 18-364): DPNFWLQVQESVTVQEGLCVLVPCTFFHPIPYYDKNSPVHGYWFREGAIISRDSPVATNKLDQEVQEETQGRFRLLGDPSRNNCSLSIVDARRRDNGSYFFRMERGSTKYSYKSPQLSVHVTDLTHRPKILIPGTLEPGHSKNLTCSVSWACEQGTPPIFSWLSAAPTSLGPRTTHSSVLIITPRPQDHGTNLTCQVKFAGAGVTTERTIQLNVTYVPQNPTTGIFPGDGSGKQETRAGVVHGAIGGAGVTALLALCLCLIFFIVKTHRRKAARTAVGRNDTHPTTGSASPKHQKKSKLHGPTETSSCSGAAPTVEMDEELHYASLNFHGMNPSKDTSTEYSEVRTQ
Method: The desired cells were expanded to a logarithmic growth phase in a T-75 cell culture flask. For adherent cells CHO-K1, the culture medium was removed by pipetting, and the cells were washed twice with a PBS buffer, digested with trypsin, and washed twice with a PBS buffer again after the digestion was stopped. For suspension cells U937, the medium supernatant was discarded by direct centrifugation, and the cell pellet was washed twice with PBS, and then incubated with a buffer containing human Fc Block (purchased from BD, Cat. No. 564220) for 15 min. After the cells obtained in the last step were subjected to cell counting, the cell pellet was resuspended to 2×10⁶ cells/mL with a blocking solution [PBS+2% (w/w) BSA] and added to a 96-well FACS reaction plate at 50 μL/well. The VHH-Fc antibody (a sample to be tested) was added at 50 μL/well, and the plate was incubated on ice for 2 h. […] After the plate was centrifuged and washed 5 times with a PBS buffer, the results were assayed and analyzed by FACS (FACS Canto™, purchased from BD Biosciences), so as to obtain the mean fluorescence intensity (MFI) of cells. Then, analysis was performed by software (GraphPad Prism8), data were fitted, and EC50 values were calculated.

human CD33-C2-his [2] = biological target: T2, human CD33-C2-his (human, UniProt P20138 136-260); assay: ELISA on coated human CD33-C2-his
T2 construct: expressed in HEK293E; also called hCD33-C2-his; human CD33 protein C2-domain; not shown: His tag
T2 sequence (P20138 other isoform, or with tags, fused parts or gaps limits assumed): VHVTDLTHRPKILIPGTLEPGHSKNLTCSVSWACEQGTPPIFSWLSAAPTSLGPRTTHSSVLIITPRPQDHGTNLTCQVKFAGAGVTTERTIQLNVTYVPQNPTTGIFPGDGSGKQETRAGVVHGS

human CD33-C2-his [3] = biological target: T2, human CD33-C2-his; assay: ELISA on coated human CD33-C2-his; remark: listed apart in the source
Source text: Plates were coated with human CD33-V-his (membrane distal end) and human CD33-C2-his (membrane proximal end), respectively, according to the ELISA method in Example 8. The VHH humanized antibodies were classified based on the membrane distal end and the membrane proximal end, as shown in FIGS. 20A-20J and Table 44, which allowed the classification of the VHH humanized antibodies into the following classes: […]

[4] = biological target: T3, human CD33-His (extracellular domain Asp 18-His 259) (human, UniProt P20138 18-259); assay: competitive ELISA vs coated S006-NB147-25 3ug/mL; soluble 25ug/ml
T3 construct: range 18-259; bought protein; also called hCD33-his; human CD33 protein; not shown: His tag
T3 sequence (P20138 18-259 limits assumed): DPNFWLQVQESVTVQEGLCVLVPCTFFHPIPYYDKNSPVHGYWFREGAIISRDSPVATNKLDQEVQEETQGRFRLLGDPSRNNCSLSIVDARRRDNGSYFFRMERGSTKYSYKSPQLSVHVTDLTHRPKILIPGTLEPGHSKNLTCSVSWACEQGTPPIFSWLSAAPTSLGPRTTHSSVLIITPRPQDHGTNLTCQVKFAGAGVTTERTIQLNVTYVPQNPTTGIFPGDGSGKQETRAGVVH

[5] = biological target: T3, human CD33-His (extracellular domain …); assay: competitive ELISA vs coated S006-NB147-220 3ug/mL; soluble 25ug/ml
human CD33-his protein [6] = biological target: T4, human CD33-his protein (human, UniProt P20138 18-259); assay: competition ELISA, coated human CD33-his, vs Biotin-C33B904 at EC80; antibody 3.91 nM
T4 construct: range 18-259; bought protein; also called hCD33-his; recombinant human CD33-his; not shown: His tag
T4 sequence (P20138 18-259 limits assumed): as above
Method: (§1) ELISA plates were coated with 2 μg/mL human CD33-his protein according to the method in Example 5.1; the Biotin-C331B904 antibody was subjected to a gradient dilution from 15 μg/mL, and EC80 values (0.18 μg/mL) were calculated. ELISA plates were coated with 2 μg/mL human CD33-his protein; starting from 40 μg/mL, the VHH antibodies to be tested were diluted in a 1:2 dilution ratio to obtain seven concentrations and added to the ELISA plates, and then Biotin-C331904 antibodies with the EC80 concentrations were added for incubation for 2 h. The plates were washed 5 times with PBS and then […] (purchased from Sigma, Cat. No. S2438) were added for incubation for 1 h, and the plates were washed 5 times. A TMB substrate was added at 50 μL/well and incubated at room temperature for 10 min, then a stop solution (1.0 M HCl) was added at 50 μL/well. OD_{450 nm} values were read using an ELISA plate reader (Insight, purchased from PerkinElmer). Then, analysis was performed by software (GraphPad Prism8), and data were fitted for curve plotting. The results are shown in FIGS. 13A-13B and Tables 28 and 29.

human CD33-his protein [7] = biological target: T4, human CD33-his protein; assay: competition ELISA, coated human CD33-his, vs Biotin-C33B904 at EC80; antibody 0.49 nM
Method: (§2) The plate was sealed with a plastic film and incubated at 4° C. overnight, washed twice with PBS the next day, and a blocking solution [PBS+2% (w/w) BSA] was added for blocking at room temperature for 2 h. The blocking solution was discarded, and VHH-Fc antibody or negative control antibody serially diluted from 100 nM was added at 50 μL/well. After incubation at 37° C. for 2 h, the plate was washed 3 times with PBS. A secondary antibody labeled with HRP (horseradish peroxidase) (purchased from Sigma, Cat. No. A0170) was added. After incubation for 1 h at 37° C., the plate was washed 5 times with PBS. A TMB substrate was added at 50 μL/well. After incubation at room temperature for 10 min, a stop solution (1.0 N HCl) was added at 50 μL/well. The OD450 nm values were read on an ELISA plate reader (Multimode Plate Reader, EnSight, purchased from Perkin Elmer). The assay results for the binding of the VHH-Fc to hCD33-his by ELISA are shown in FIGS. 7A and 7B and Tables 11 and 12. […] The IgG control was hIgG1, and the data in the table are OD450 nm values.
(§3) ELISA plates were coated with 2 μg/mL human CD33-his protein according to the method in Example 5.1; the Biotin-C331B904 antibody was subjected to a gradient dilution from 15 μg/mL, and EC80 values (0.18 μg/mL) were calculated. […] OD_{450 nm} values were read using an ELISA plate reader (Insight, purchased from PerkinElmer). […]

human CD33-his protein [8] = biological target: T4, human CD33-his protein; assay: competition ELISA, coated human CD33-his, vs Biotin-C33B904 at EC80; antibody 3.91 nM; remark: listed apart in the source
Method: as §2, §3

human CD33-his protein [9] = biological target: T4, human CD33-his protein; assay: competition ELISA, coated human CD33-his, vs Biotin-C33B904 at EC80; antibody 62.50 nM
Method: as §2, §3

human CD33-his protein [10] = biological target: T4, human CD33-his protein; assay: competition ELISA, coated human CD33-his, vs Biotin-C33B904 at EC80; antibody 250.00 nM
Method: as §1

human CD33-his protein [11] = biological target: T4, human CD33-his protein; assay: competition ELISA, coated human CD33-his, vs Biotin-C33B904 at EC80; antibody 0 nM (no competitor)
Method: as §1

EC50 [1] [nM]	Max MFI [1] [MFI]	EC50 (read off the curve) (human CD33-C2-his [2]) [nM]	EC50 (read off the curve) (human CD33-C2-his [3]) [nM]	inhibition rate [4] [%]	inhibition rate [5] [%]	OD450 (Biotin-C33B904 signal) (human CD33-his protein [6])	OD450 (Biotin-C33B904 signal) (human CD33-his protein [7])	OD450 (Biotin-C33B904 signal) (human CD33-his protein [8])	OD450 (Biotin-C33B904 signal) (human CD33-his protein [9])	OD450 (Biotin-C33B904 signal) (human CD33-his protein [10])	OD450 (Biotin-C33B904 signal) (human CD33-his protein [11])	Binder
12.6	682	~0.3	~0.1	99	98							B1
						1.77	2.44	2.25	0.24	0.1	2.35	B2
